Test results as given in article PMC10409285 (PLOS Pathogens, 2023).
Read-outs that look alike come from different tables or passages of the source. No end group written: not given here.

Legend:
[1] = target: Soluble DRB1*15:01 (human) (UniProt P01903)
[2] = target: Soluble DP4 (HLA-DPA1*01:03/DPB1*04:01) (human)
[3] = target: Soluble DRB1*15:01 (human) (UniProt P01903); test: fluorescence polarisation
[4] = target: Soluble DRB5*01:01 (human) (UniProt P01903); test: fluorescence polarisation
DR2b (DRB1*15:01) = target: T1, DR2b (DRB1*15:01) (Homo sapiens, UniProt P01903+P01911); test: fluorescence polarization competition binding assay, DR2b; conditions: mean of two independent experiments
T1 construct: Soluble DRB1*15:01 and DRB5*01:01 with a covalently linked CLIP peptides; covalently linked CLIP peptide (3C-protease-cleavable linker) (cleaved yes); purchased NIH Tetramer Core Facility / Emory University (a gift of Drs. John Altman and Richard Willis, not bought)

DR2a (DRB5*01:01) = DR2a (DRB5*01:01) (Homo sapiens, UniProt P01903+Q30154); test: fluorescence polarization competition binding assay, DR2a
[5] = target: Soluble DP4 (HLA-DPA1*01:03/DPB1*04:01) (human); test: fluorescence polarisation
A549 cells = conditions: cells treated with IFN-γ and trametinib (IFN-γ 100 ng/mL; trametinib 50 ng/mL, 50 nM)

P11, OC43 spike 1085–1099 (peptide)
IC50 [1]: < 1000 nM

P7, OC43 spike 1147–1164 (peptide)
IC50 [2]: < 10000 nM

P6, OC43 spike 1140–1155 (peptide)
IC50 [2]: > 10000 nM

P10, OC43 nucleoprotein 54–68 (peptide)
IC50 [1]: < 1000 nM

P9, OC43 hemagglutinin esterase 128–142 (peptide)
IC50 [3]: < 1000 nM | IC50 [4]: < 1000 nM

P5, OC43 spike 760–773 (peptide)
IC50 [2]: < 1000 nM

P8, OC43 hemagglutinin esterase 93–107 (peptide)
IC50 [3]: < 1000 nM

P3, OC43 spike 97–111 (peptide)
IC50 [2]: < 10000 nM

P12, OC43 spike 98–114 (peptide)
IC50 [1]: > 1000 nM | IC50 [4]: < 1000 nM

P2, OC43 nucleoprotein 321–336 (peptide)
IC50 [2]: > 10000 nM

P4, OC43 spike 903–917 (peptide)
IC50 [2]: < 10000 nM

CC[C@H](C)[C@H](NC(=O)[C@H](CC(=O)O)NC(=O)[C@H](CO)NC(=O)[C@H](CC(C)C)NC(=O)[C@H](CCC(N)=O)NC(=O)[C@H](CCC(N)=O)NC(=O)[C@H](CO)NC(=O)[C@@H](NC(=O)[C@H](Cc1ccc(O)cc1)NC(=O)[C@H](C)NC(=O)[C@H](CC(N)=O)NC(=O)[C@H](CC(C)C)NC(=O)[C@H](C)NC(=O)[C@@H](NC(=O)[C@@H](N)CC(C)C)[C@@H](C)O)C(C)C)C(=O)O [Peptide P11.HKU1]
IC50 (DR2b (DRB1*15:01)): 220 nM | IC50 (DR2a (DRB5*01:01)): 21300 nM

CC[C@H](C)[C@H](NC(=O)[C@H](CC(C)C)NC(=O)[C@H](CCC(N)=O)NC(=O)[C@H](CCC(N)=O)NC(=O)[C@@H](NC(=O)[C@@H](NC(=O)[C@H](Cc1ccc(O)cc1)NC(=O)[C@@H](NC(=O)[C@H](CCC(N)=O)NC(=O)[C@H](CC(C)C)NC(=O)[C@H](CO)NC(=O)[C@H](CCC(N)=O)NC(=O)[C@@H](N)CC(C)C)[C@@H](C)O)C(C)C)[C@@H](C)O)C(=O)N[C@@H](CCCNC(=N)N)C(=O)N[C@@H](C)C(=O)O [Peptide P11.CoV2]
IC50 (DR2b (DRB1*15:01)): 450 nM | IC50 (DR2a (DRB5*01:01); fluorescence polarization competition, […], mean of two independent experiments, read-out: Mean IC50, DR2a (DRB5*01:01)): 2180 nM

P1, OC43 hemagglutinin esterase 259–273 (peptide)
IC50 [5]: < 1000 nM

CC(=O)Nc1cccc(-n2c(=O)n(C3CC3)c(=O)c3c(Nc4ccc(I)cc4F)n(C)c(=O)c(C)c32)c1 [trametinib]
MHC-II expression in A549 cells (A549 cells): small increase

EGQQIIFYEGVNFTP [Peptide P8]
IC50 (DR2b (DRB1*15:01)): 230 nM | IC50 (DR2a (DRB5*01:01)): 5680 nM

P14, OC43 envelope 62–78 (peptide)
IC50 [2]: < 10000 nM

CC(C)C[C@H](NC(=O)[C@H](C)NC(=O)[C@H](C)NC(=O)[C@@H](N)CC(C)C)C(=O)N[C@@H](CC(N)=O)C(=O)N[C@@H](C)C(=O)N[C@@H](Cc1ccccc1)C(=O)N[C@H](C(=O)N[C@@H](CO)C(=O)N[C@@H](CCC(N)=O)C(=O)N[C@H](C(=O)N[C@@H](CC(C)C)C(=O)N[C@@H](CC(N)=O)C(=O)N[C@@H](CCCCN)C(=O)N[C@@H](Cc1ccc(O)cc1)C(=O)O)C(C)C)C(C)C [Peptide P11.NL63]
IC50 (DR2b (DRB1*15:01)): 560 nM | IC50 (DR2a (DRB5*01:01)): 2100 nM
